Drawing on PMC6949295 (2020), this text covers response (relative band intensity) for 3 substances.

Among the targets are HA-Exo70(S47D/S59D); HA-Exo70(S59D); HA-Exo70(S47D).
Common to all, as to test: co-immunoprecipitation (IP: HA, blot: Flag)
Conditions in all cases: 293T cells; parent: 1.00

On to “Exo70 wild type, HA-tagged and Flag-tagged copies co-expressed (from UniProt O54922) S47D; S59D”, for which the response (relative band intensity) with HA-Exo70(S47D/S59D) came to 0.96.
On to “Exo70 wild type, HA-tagged and Flag-tagged copies co-expressed (from UniProt O54922) S59D”, for which the response (relative band intensity) with HA-Exo70(S59D) came out at 1.
As to “Exo70 wild type, HA-tagged and Flag-tagged copies co-expressed (from UniProt O54922) S47D”, the response (relative band intensity) in the test with HA-Exo70(S47D) came to 1.
